According to a protein production outcome set (Wang et al. 2014):

Test: label from the status in PepcDB records
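Further: failed if final PepcDB status was selected cloned or expressed and not failed if soluble or beyond.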

| Sequence | protein production |
| --- | --- |
| MSDQDVNPEHISDAQPAGTGLVLPGQTLPTTLYVIPIHNRPFFPAQVLPVIVNEEPWAETLELVAKTDHHSLALFFMDNPPEDPRHFDVNSLPEHGTLVRVHHASREGGKLQFVAQGLSRVRIRGWIKRHRPPFMVEVDYPKTPIDPSDEVKAYGMALINAIKELLPLNPLYSEELKNYLNRFSPNDPSPLTDFAAALTTAPGGELQEVLDTVPILKRMEKVLPLLRKEVEVARLQKELSAEVNRKIGEHQREFFLKEQLKIIQQELGITKDDKSADADEFRARLEGKVLPEQARKRIDEELNKLSILESGSPEYAVTRNYLDWATALPWGVYGKDKLDLKHARKVLDKHHAGLDDIKDRILEFLAVGSFKGEIAGSIVLLVGPPGVGKTSIGKSIAESLGRPFYRFSVGGMRDEAEIKGHRRTYIGALPGKLVQALKEVEVMNPVIMLDEIDKLGASYQGDPASALLETLDPEQNVEFLDHYLDLRLDLSKVLFVCTANTLDSIPGPLLDRMEVIRLSGYISEEKLAIAKRHLWPKQLEKAGVPKGRLSISDAALRAVIEGYAREAGVRQLEKQLGKLVRKSVVKLLEDPESKVKIGPRDLEDYLGMPVFRSEQVLSGIGVITGLAWTSMGGATLPIEATRIHTLNRGFKLTGQLGDVMKESAEIAYSYIGSHLKKYGGDPTFFDQAFVHLHVPEGATPKDGPSAGVTMASALLSLARNQVPKKGVAMTGELTLTGQVLPIGGVREKVIAARRQKIFELILPEANRGHFEELPDYLREGLTVHFAKRYGDVAKVLF | failed |
| MAANNRSDHGSDENTRLYNPYQNYEVPINKSQYLYKLPTSPEFLFTEEALRQRRSWGENLTFYTGTAYLGGSVAGASVGVITGVKSFESGDTTKLKINRILNSSGQTGRTWGNRIGIIGLVYAGIESGIVAATDRDDVWTSVVAGLGTGAVCRAARGVRSAAVAGALGGLAAGAVVAGKQIVKRYVPI | failed |
| MKKAVVVFSGGQDSTTCLVQALKEFDEVHAITFDYGQRHKLEIEVAQKIAKDLGVKAHKVMDVGLLNELAISSLTRDDIPVSHELQENGLPNSFVPGRNILFLTLAGIYAYQIGADTVITGVCETDFSGYPDCRDDFVKSMNTALVKGMDRALTIKTPLMWLNKAETWALADQYNALQLVRENTLTCYNGIIGDGCGDCPSCDLRKAGLDEYLNNKDAVMKSLVQKQESEGL | failed |
| MGVSPQVARWFDCDLRSVVDHGVDRLRFTWKLGDPVEAELPSEEPFWMVRRDRFDHFLVEQAANLGARIEDGAAVTAVSAEGDGWLVTVGDRAYRSRTLIAADGARGPLAQWLGFPSQKRRYAQACELDVPLPARPDSTAHFEFGLVRNGYIWVFPKSDGYSIGIGTFRGNDATDFRGLLETYLAGFGVSADLDRIVPHPLCVWDGSQPLHRGSALLVGEAASLTDPFTAEGIRPALLSGMRAAEAIDRAIAGDRNALAGYSRTIQQEWGDSMAWAKRISSVFYRVPNLGYQIGIKRPTAPQRMAQILVGELDYSDIATRVIRRLTTGFLPGMRLEHHHHHH | failed |
| MYELERTVFQELFRRVLDNQYQVTPEERKALVQCDNSIVRRGIFSALTSFSLIYYGLKQFQKHFNASSSLRLRPAIPATLLGLTTGFFYGRTAAPGCLQNLMNVPNSAVAEEVKIIIRELYEQSPSSTTGQTIATRYGFLLDSTTVPMKISDVGFGDNENSDWKEVDTWQSDNSIYQGTVQKRVGPRNSDKRRVIRPNDKVENHIHQDALANSTSSLPSNETDYGFASLPGYSSSQSDSDVLESWDIGNDNQQENTNNEPNVKKESHRRRRRNEFRKSNGQVKSLESDPTEQGTIQTDTKDLLSSRQDTDALWDSSFSGKGSSATAF | failed |
| MKKTLSVLVISSLLFGANVQAAALNAAQEKEVRALVRDTLVSNPEILEEAIMALQTKKADEQQAQFRQALASEHDALYNDAASPRIGAKDAKLVLVSFTDYNCPYCKRFDPLLEKITEQYPDVAVIIKPLPFKGESSAKASQAVLSVWKEDPKAFLALHQRLMQKKTMLDNASIEDAMKSTNTSKIKLTDDSLKTLQNNLELSRKLGIQGTPATVIGDTILPGAVDYDQLEIIVKEQLAKVKK | failed |
| MSLHTSHVIPAPRIDVWEWHTRPGAVFRLTPPFLPLRPLEQATSLAKGTTVFALPAGLRWEARHDLSGYIQHHRFTDVCINAPVKSLASWRHIHDFTDHPSGTLITDTVHTRAPRTTLSPAFAYRQHQLINDIQAQQRFYELTRSNPTESTPLTIGLTGSRGLVGRALTAQLTTLGHTVVQLVRGESKPHQRHWDPAHPAPNLLEGLDALIHLAGEPILGRFNDAHKADIRDSRIEPTRQLSQLVQKSSTCRTMVSASAIGYYGHARGDEILDEGSTQGDDFLASVCEEWEAASRTDATSNKRIVNIRTGVVMSGRGGMLPVLKAVFSVGLGGPFRGSNPWMSWIAIDDLCDIYIRAVLDPKLSGAINAVAPNPIKNQDFVDALAKELKRPAKMTISSLGPAILLGQQGAKELALADQRVQPRVLNNLDHHFRYVDIRSCLAHELGGENLLDI | failed |
| MAAKRLAVLCIFLLPNTQFRQLRLAETAEELPQLLREAEKASWTYLEFLESITRYELAKREAKSLEKRMKWARFPFVKSLDEFELRGQNVLTARQLSQLRELSWLEQQYNLILLGPPGIGKTYIAIGLGLEAVYRGFHVYFATMGELVQLLKSEEYLNKSKVQLKRIRNADLVIIDDLMYMAMDQREANLFFHLINHLYERSSIILTSNKSPEEWGHLIGDQGITTAILDRLLHRVEVIHGGENEESHRMKNRKSIFSAEVLEHHHHHH | failed |
| MSLIRWLVERWLEFMGNHPFLFGTLAILIVLFFIFEGQRNGRKISPQSLGILIKAKNAQLIDLRDAKDFREGHISGSRNIPYSQITSHVDELKASERPLVFICNLGQVAGSALQKIGHADSYRLDGGISNWKAQGLPLVKAKTKA | failed |
| MIKVWLQQGRGLWLALFLGLLSPALVHAEEAPPGLVKVPLDRRVIDLTATLDSATQERMVHKLEALEQRRGAQIAVMLVPNLGQQSIEALSNQLFRAWKLGRKGVDDGILLLVAKNDHKVRIEVGYGLEPVVTDLLAGQIIAQDLTPAFRQGDFAGGIDRALDDLILLVDGGSLPEPAGLAVPLEAYALLLAFVFGSVAGVMLAAGWNWRRVLGGAVVLMAVLVGAVGGHEWLAQLFLVPLCMLIGGATFAGLWQARRVFYGVLGLLLYIGLLTLVSQYLGRLTFLYGLAWPAGVLLVLGGHWLLYWMMRNSWRKSPRGFLWRFAVLLTLVLLMGLGVDAWQAAQRWLRVVPFAYFLSFILFAGGSGFRWSSGGGSSSGGRSSSGGGFSGGGGSSGGGGASGSW | failed |
| MAKKNKPTECPAGEKWAVPYADFLSLLLALFIALYAISAVNKSKVEALKTEFIKIFNYAPKPEAMQPVVVIPPDSGKEEEQMASESSKPASQNTETKATIARKGEGSVLEQIDQGSILKLPSNLLFENATSDAINQDMMLYIERIAKIIQKLPKRVHINVRGFTDDTPLVKTRFKSHYELAANRAYRVMKVLIQYGVNPNQLSFSSYGSTNPIAPNDSLENRMKNNRVEIFFSTDANDLSKIHSILDNEFNPHKQQE | failed |
| MGQMFGVACIDEQSGIVGQAWNNNSVRYISIDEDAVITIQSGPVVGKVAVSNDKTLAYGATINGANTVYVYKKSQAWVPSRLSDISSGTDVWAVALNGDNQWLYYVTANGRLGRIEVDNPTHNEILFEHNDFSGGPFAYIAYSAFEDCFYVTTDKNKILKVWVKEDGTHAYEQINQNNTGTTDGFLADEAKFQYLRGLTIDEDGNIFVCQGDNSHVIRKIAYDENMEKRYVTTVLGTSTVHGTDDGSPDIALFNGPQDISYDGNGGYWIAMRYEPALRKYSIELEHHHHHH | failed |
| MQNPIDSLLYVKISAEQAGKIFENLESSIPLPIQLSEPGQKEDFKAENIKPEMILAGMLTVFAYDRENPHITYYRKIFNLLRPDIRKEMTEAAIIKIKNNDFDMAEEILLSLEGLNPDDGITKLNLALLMEERSQFCEMRELFEDALSFNKRAEELYSELILFEPPLPGVFFNAAYFFIKQKNYIKAKSLLKTYLEIENDSSETAEFRKAKASELLKTISEQALDDELFQKAYKCIDLGEEEKAAESIKLFLRKNPKVWNAWFLLGWALRRMGRWEDARSSFLKTIELLENSEISDKEPLCDVYNELAICLMELELFDEAEKHLINALSLDSENIKIISNLGTLALKQGKQEEAEAFFRTVLEINPDDKIALNVLGKPRA | failed |
| MRGLKTFSILGLIVALLLVAACGNTDNSSKKESSTKDTISVKDENGTVKVPKDAKRIVVLEYSFADALAALDVKPVGIADDGKKKRIIKPVREKIGDYTSVGTRKQPNLEEISKLKPDLIIADSSRHKGINKELNKIAPTLSLKSFDGDYKQNINSFKTIAKALNKEKEGEKRLAEHDKLINKYKDEIKFDRNQKVLPAVVAKAGLLAHPNYSYVGQFLNELGFKNALSDDVTKGLSKYLKGPYLQLDTEHLADLNPERMIIMTDHAKKDSAEFKKLQEDATWKKLNAVKNNRVDIVDRDVWARSRGLISSEEMAKELVELSKKEQK | failed |
| MKPTLLVLAAGMGSRYGGVKQIAAVGRHDETLLDYAVYDAMNNGFGKVVFIIREDIENDFRERFFNRIARNCNADYVFQSMDGFLTDEQIKRAVNRKKPWGTAHAILSAELKINEPFAVINADDYYGRSAYKTIATHLSTLSNDSTEHAMVGYILDKTLSRSGSVSRGVCQVGNGYLIGITEHKDIAYKKEGSVEKIVSEHEGKTVEFSGKETVSMNLFGFSPKIFDFMNEYFKDFIHKYAESEKAECLLPEGVGAMMKKGLGKVKVYTTTERWFGMTYPEDREIVKKELENKVKEGYYPEFLWR | failed |
| MSAKIVTVFNQKGGCGKTTVSMHIAGTLGVRGSKTLLVDMDEQGTATRWAAQAPEEKPFPASVIGLAPSGGAMHREVRKFIADYDYIVVDCPPAVHSPASSSALLISDIAIIPVVPSPPDLWAAVAAKALAQQAQVTNETLRVRVLANMVQRRVSLAKQAIEILGDDGDIPLMESMIGSRSAFRECQAIGATVHGVPGAREAINEVDIMVNEVLQLLREGQA | failed |
| MTLDANSAPVRDMASAHFSPGEDCRRKIRDLCRQARISVDICVFTISDDQLSDEIRACHQRGVAVRVISDSEKQFDVGSDIAALREAGVPVRIDDTPFHMHHKFAVFDGRTLLNGSFNWTRSATTGNEENLLVIDHPQLVASYLKEFNELWSRYAPRLEHHHHHH | failed |
| MTSGIDLQNSFLQSLQGFGLPPGLAKLFWIPLPSILMIIGATVGVLVVVWLERKISAAAQQRIGPEYAGPLGVLQPVADGIKLVFKEDVVPAKADPWLFTLGPVLVVLPVFLSYLIVPFGQNLVITDINVGIFLWIALSSIAPIGLLMSGYASNNKYSLLGGLRAAAQSISYEIPLSLAVLAIVMMSNSLSTIDIVDQQSGYGILGWNIWRQPVGFLIFWIAALAECERLPFDLPEAEEELVAGYQTEYAGMKFALFYLGSYVNLVLSALVFSVLYLGGWDFPIPLENVANWLGVAPTTSWLQVLMAALGITMTVLKSYFLIFIAILLRWTVPRVRIDQLLNLGWKFLLPVALANLLITAALKLTFPMAFGG | failed |
| MNTTDRDASHTLLEQVNQALQDNTPLRIRGGNSKAFLGREVTGEPLDTRAHRGIVSYDPTELVITARAGTPLSEVLQALDAAGQMLPCEPPDIGAATLGGVVAAGLSGPRRPWSGSVRDFVLGTRLITGLGKHLRFGGEVMKNVAGYDVSRLLTGSFGCLGVLTEVSLKVLPKPRLCSSIALEMDSARALACLAEWGQQPMPISAASHDGRVLRLRLEGGEGSVAAAHERLGGELIDATYWQQLNEQRLPFFFDPGPLWRVCVPADTGVLDLPGEQLIDWAGAQRWLKSDASGDAIRAMTASVGGHATCYSQGRDDSPFHPLTTPLLRYHQALKTRLDPQGIFNPGRLYREL | failed |
| MVYVDPDRFDELVAEALDGIPEEFARAMRNVAVFVEDEPDDPELLGLYVGIPLTERTTAYGGVLPDRIIIYRNTICALCETESEVIDEVRKTVVHEIAHHFGIDDERLHELGY | not failed |
